Source: the supplement of paper PMC11246515
± gives the standard deviation of the averaged measurements.

Test: total protein half-life in vivo (active degradation + dilution); higher = more stable protein
[1] = E. coli NCM3722 delta-clpP delta-lon delta-hslV, growth: N-lim chemostat, doubling time 6 h
[2] = E. coli NCM3722 delta-clpP, growth: N-lim chemostat, doubling time 6 h
[3] = E. coli NCM3722 delta-hslV, growth: N-lim chemostat, doubling time 6 h
[4] = E. coli NCM3722 delta-lon, growth: N-lim chemostat, doubling time 6 h
[5] = E. coli NCM3722 delta-smpB, growth: N-lim chemostat, doubling time 6 h
[6] = wild type E. coli NCM3722, growth: C-lim chemostat, doubling time 3 h
[7] = wild type E. coli NCM3722, growth: C-lim chemostat, doubling time 12 h
[8] = wild type E. coli NCM3722, growth: N-lim chemostat, doubling time 6 h
[9] = wild type E. coli NCM3722, growth: N-lim chemostat, doubling time 12 h
[10] = wild type E. coli NCM3722, growth: P-lim chemostat, doubling time 6 h
[11] = wild type E. coli NCM3722, growth: C-lim chemostat, doubling time 6 h
[12] = wild type E. coli NCM3722, growth: P-lim chemostat, doubling time 12 h

Sequence | total protein half-life in vivo [1] | total protein half-life in vivo [2] | total protein half-life in vivo [3] | total protein half-life in vivo [4] | total protein half-life in vivo [5] | total protein half-life in vivo [6] | total protein half-life in vivo [7] | total protein half-life in vivo [8] | total protein half-life in vivo [9] | total protein half-life in vivo [10] | total protein half-life in vivo [11] | total protein half-life in vivo [12]
MSEIKDVIVQGLWKNNSALVQLLGLCPLLAVTSTATNALGLGLATTLVLTLTNLTISTLRHWTPAEIRIPIYVMIIASVVSAVQMLINAYAFGLYQSLGIFIPLIVTNCIVVGRAEAFAAKKGPALSALDGFSIGMGATCAMFVLGSLREIIGNGTLFDGADALLGSWAKVLRVEIFHTDSPFLLAMLPPGAFIGLGLMLAGKYLIDERMKKRRAEAAAERALPNGETGNV | 2.66 ± 0.39 h | 3.52 h | 2.7 h | 2.38 ± 0.21 h | 4.72 ± 0.73 h | 2.72 ± 0.066 h | 5.17 h | 3.33 h | 5.84 ± 1.2 h | 3.64 h |  | 
MSEIVIRHAETRDYEAIRQIHAQPEVYCNTLQVPHPSDHMWQERLADRPGIKQLVACIDGDVVGHLTIDVQQRPRRSHVADFGICVDSRWKNRGVASALMREMIEMCDNWLRVDRIELTVFVDNAPAIKVYKKYGFEIEGTGKKYALRNGEYVDAYYMARVK | 4.84 ± 0.053 h | 3.7 ± 0.65 h | 4.09 ± 0.13 h | 4.56 ± 0.45 h | 3.82 ± 0.33 h | 3.03 ± 0.086 h | 10.4 ± 0.85 h | 3.91 h | 6.73 ± 0.38 h | 5.26 ± 0.41 h | 4.83 ± 0.18 h | 11.3 ± 0.22 h
MSEKLQKVLARAGHGSRREIESIIEAGRVSVDGKIAKLGDRVEVTPGLKIRIDGHLISVRESAEQICRVLAYYKPEGELCTRNDPEGRPTVFDRLPKLRGARWIAVGRLDVNTCGLLLFTTDGELANRLMHPSREVEREYAVRVFGQVDDAKLRDLSRGVQLEDGPAAFKTIKFSGGEGINQWYNVTLTEGRNREVRRLWEAVGVQVSRLIRVRYGDIPLPKGLPRGGWTELDLAQTNYLRELVELPPETSSKVAVEKDRRRMKANQIRRAVKRHSQVSGGRRSGGRNNNG | 6.28 ± 0.59 h | 5.65 ± 1.1 h | 6.02 ± 0.61 h | 5.92 ± 0.38 h | 4.94 ± 0.081 h | 2.92 ± 0.27 h | 10.4 ± 2.1 h | 6.18 ± 1.5 h | 9.66 ± 0.21 h | 5.43 ± 0.43 h | 5.79 ± 0.66 h | 10.6 ± 0.17 h
MSEKPLTKTDYLMRLRRCQTIDTLERVIEKNKYELSDNELAVFYSAADHRLAELTMNKLYDKIPSSVWKFIR [P0ACE3] | 2.93 h |  |  |  |  |  | 0.865 h |  |  |  | 1.69 ± 0.43 h | 
MSEKTFLVEIGTEELPPKALRSLAESFAANFTAELDNAGLAHGTVQWFAAPRRLALKVANLAEAQPDREIEKRGPAIAQAFDAEGKPSKAAEGWARGCGITVDQAERLTTDKGEWLLYRAHVKGESTEALLPNMVATSLAKLPIPKLMRWGASDVHFVRPVHTVTLLLGDKVIPATILGIQSDRVIRGHRFMGEPEFTIDNADQYPEILRERGKVIADYEERKAKIKADAEEAARKIGGNADLSESLLEEVASLVEWPVVLTAKFEEKFLAVPAEALVYTMKGDQKYFPVYANDGKLLPNFIFVANIESKDPQQIISGNEKVVRPRLADAEFFFNTDRKKRLEDNLPRLQTVLFQQQLGTLRDKTDRIQALAGWIAEQIGADVNHATRAGLLSKCDLMTNMVFEFTDTQGVMGMHYARHDGEAEDVAVALNEQYQPRFAGDDLPSNPVACALAIADKMDTLAGIFGIGQHPKGDKDPFALRRAALGVLRIIVEKNLNLDLQTLTEEAVRLYGDKLTNANVVDDVIDFMLGRFRAWYQDEGYTVDTIQAVLARRPTRPADFDARMKAVSHFRTLDAAAALAAANKRVSNILAKSDEVLSDRVNASTLKEPEEIKLAMQVVVLRDKLEPYFTEGRYQDALVELAELREPVDAFFDKVMVMVDDKELRINRLTMLEKLRELFLRVADISLLQ | 6.02 ± 0.36 h | 6.28 ± 0.94 h | 5.56 ± 0.53 h | 5.82 ± 0.65 h | 5.74 ± 0.6 h | 3.278 ± 0.0052 h | 11 ± 1 h | 5.72 ± 0.31 h | 10.5 ± 0.11 h | 6.31 ± 0.44 h | 5.89 ± 0.085 h | 12.2 ± 1.2 h
MSELNDLLTTRELQRWRLILGEAAETTLCGLDDNARQIDHALEWLYGRDPERLQRGERSGGLGGSNLTTPEWINSIHTLFPQQVIERLESDAVLRYGIEDVVTNLDVLERMQPSESLLRAVLHTKHLMNPEVLAAARRIVCQVVEEIMARLAKEVRQAFSGVRDRRRRSFIPLARNFDFKSTLRANLQHWHPQHGKLYIESPRFNSRIKRQSEQWQLVLLVDQSGSMVDSVIHSAVMAACLWQLPGIRTHLVAFDTSVVDLTADVADPVELLMKVQLGGGTNIASAVEYGRQLIEQPAKSVIILVSDFYEGGSSSLLTHQVKKCVQSGIKVLGLAALDSTATPCYDRDTAQALVNVGAQIAAMTPGELASWLAENLQS |  |  |  |  |  |  | 12.9 h |  | 8.61 h | 6.39 h |  | 
MSEQLVTPENVTTKDGKINLLDLNRQQMREFFKDLGEKPFRADQVMKWMYHYCCDNFDEMTDINKVLRGKLKEVAEIRAPEVVEEQRSSDGTIKWAIAVGDQRVETVYIPEDDRATLCVSSQVGCALECKFCSTAQQGFNRNLRVSEIIGQVWRAAKIVGAAKVTGQRPITNVVMMGMGEPLLNLNNVVPAMEIMLDDFGFGLSKRRVTLSTSGVVPALDKLGDMIDVALAISLHAPNDEIRDEIVPINKKYNIETFLAAVRRYLEKSNANQGRVTIEYVMLDHVNDGTEHAHQLAELLKDTPCKINLIPWNPFPGAPYGRSSNSRIDRFSKVLMSYGFTTIVRKTRGDDIDAACGQLAGDVIDRTKRTLRKRMQGEAIDIKAV | 4.37 ± 0.19 h | 2.76 ± 0.77 h | 1.13 ± 0.07 h | 1.57 ± 0.14 h | 1.15 ± 0.025 h | 1.35 ± 0.022 h | 2.442 ± 0.024 h | 1.31 ± 0.027 h | 1.88 ± 0.24 h | 1.78 ± 0.32 h | 1.89 ± 0.12 h | 2.3 ± 0.26 h
